Biological target: T1, GST-AIM3 fusion protein (human, UniProt O43324 1-174)
T1 construct: Immobilised on glutathione-sepharose beads; also called GST-fused AIM3; GST-fused AIM3 protein; not shown: glutathione S-transferase (GST) fusion partner from the Pharmacia system; The vector, the linker and the order of the fu
T1 sequence: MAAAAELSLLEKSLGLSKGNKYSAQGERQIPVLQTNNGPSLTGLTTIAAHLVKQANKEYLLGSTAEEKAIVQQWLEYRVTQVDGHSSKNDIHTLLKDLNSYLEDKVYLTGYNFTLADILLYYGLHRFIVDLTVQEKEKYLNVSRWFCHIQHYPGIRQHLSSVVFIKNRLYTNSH
Assay: GST pull-down of in vitro translated, radiolabelled fragment, autoradiography
Excerpt: First, AIM3 was expressed as GST fusion protein and purified according to the manufacturer's protocol (Pharmacia). Meanwhile, since it was difficult to synthesize the whole ATM due to its large size, the present inventors tested the interaction between the functional domain of ATM and AIM3. For this purpose, a fragment consisting of 612 amino acids, including the FAT domain of an ATM structure, was amplified by PCR with primers shown in SEQ ID NO: 12 and SEQ ID NO: 13. Also, a fragment (control group) consisting of 145 amino acids, including the C-terminal domain, was amplified by PCR with primers shown in SEQ ID NO: 14 and SEQ ID NO: 15. Then, the amplified PCR products were subdloned into pcDNA3.1 (Invitrogen), a vector suitable for in vitro transcription and […]. At this time, the protein was synthesized by in vitro translation in the presence of radioactive methionine. 10 μl of the synthesized TNT product was incubated with the GST- or GST-AIM3 fusion protein-immobilized glutathion-sepharose beads for 5 minutes. Then, the beads were washed six times with a binding buffer (PBS containing 0.2% sarcosine and 0.2% Triton X100), and dissolved in 10% SDS-PAGE. The binding of the GST-fused AIM3 to each domain was determined by autoradiography.

binding result: no binding
B1: ATM fragment consisting of 145 amino acids, including the C-terminal domain (other, UniProt Q13315 2912-3056, looked up)
chain: RDIVDGMGITGVEGVFRRCCEKTMEVMRNSQETLLTIVEVLLYDPLFDWTMNPLKALYLQQRPEDETELHPTLNADDQECKRNLSDIDQSFNKVAERVLMRLQEKLKGVEEGTVLSVGGQVNLLIQQAIDPKNLSRLFPGWKAWV
modifications: radioactive methionine (in vitro translated)
notes: domain: C-terminal domain; Made by in vitro transcription and translation from pcDNA3.1; Its limits are set only by the PCR primers; also called C-terminal domain of ATM; control group fragment

— patent US20060046250A1 (SEOUL NATIONAL UNIVERSITY INDUSTRY FOUNDATION, published 2006)
